A protein production outcome set (Wang et al. 2014)

Experiment: label from the status in PepcDB records

**Q.** For “MICCLGPRGSYSEKAAVTFSKAINDSEIQFEDSIYNVFKAVETNPEFFGVVPSENSIGGSVSITQDLLLEFPVKILGEVDISINHCLLGYDIKKVTEVLAHPQALAQCGHYITKNNWNITPVDSNAKAAKIVSEEKDEKLAAICGVENAEIYGLNVLDEYIQDFKNNTTRFFLICNKNK”, which protein production is on record?
**A.** failed

**Q.** For “MGHHHHHHSHGYLLKPEFMRRPDKSFDPFTEVIVDGIVANALRVKVISGQFLSDRKVGIYVEVDMFGLPVDTRRKYRTRTSQGNSFNPVWDEEPFDFPKVVLPTLASLRIAAFEEGGKFVGHRILPVSAIRSGYHYVCLRNEANQPLCLPALLIYTEASDYIPDDHQDYAEALINPIKHVSLMDQRARQLAALIG”, which protein production is on record?
**A.** failed

**Q.** Which protein production does the source give for “MKPARAQGSIMLLVDVYLDKSPIQGIGVFAKHHIPMGTLIWKLDPRFDRIIDVETYEGESGPVKNYLDRYSYPDRRDPAYIVFEADDARYMNHDDEPNCDVSSPEETYALRDIAPGEELTCNYNHFFEAGFDFLGDRHL” here?
**A.** failed

**Q.** With “MRAMRWILPLLLAIGVAAPARAASEWAVKDGSVQVKAHADEQGRAVVRASIEIAAPPSVVFGVILDCGRAARMSPGVKRCRVVSRAADGSEVREHTVKWGFFLPALQSRSRLSLQPDREIRFTCIGGDIRACDGFWRLEPLDGGMRTRVTYDLWATAPYAAPAGLVSSLMRRTVPQSLAALRRECEGG” as the sequence, how does the protein production read?
**A.** failed

**Q.** Which protein production does the source give for “MKQVNVDVAVIGGGTAGLGSYRAAKAHTDSVVMIEGGPYGTTCARVGCMPSKLLIAAAESVHQIEKAPKFGIHPQGEIVINGREVMERVKFERDRFVGFVLEGVDEIPAEDKISGYAKFLDDNTLQVDDHTIINAKRIVIATGSRPAYPAVWNELGDRLIINDDVFNWDDLPKSVAVFGPGVIGLELGQALHRLGVETKLFGLGGQVGPVTDPEVMAYANKAFNEEFYLDADVKVESMKRITTESGEERVEIQFINKQGELETNIVEYVLAATGRRPNTDKLGLENTSIELDERGVPTADFYTLQTSLPTVFIAGDASNQLPLLHEAADQARIAGDNAGRFPEIRAGLRRSKISAVFSDPQIAMVGETYKEITTRLGTCGCFATGEVSFENQGRSRVMLRNKGILHVYGEQGTGRFLGAEMMGPNAEHLAHLLAWAHQNKMTVSEMLDMPFYHPVIEEGVRTALRDLNAKLHLGPEMIKHCMDCGPGC” here?
**A.** failed

**Q.** For “MGERSDSRLAAMRTDELNIDVVLVQRLVAGQFPRWAGLGVEAVDSGGTSNAMYRLGADLVVRLPRRAGAEGDVAKEHRWLPWLAPRLPVAVPVPLGQGLPAGNYPFRWSVYRWLDGATPDVGHLVAPGLLAEDLAGFIDALHRVDPAGGPDSYRSEHLAVRDTVTREAIEELRGVVDADAARAVWETALRAPVWAGPPVWIHADLQPGNVLVDRGRLGAVIDFGCLGLGDPAVDLIVAWYVLPGDVREAFRAAVAADDASWARGRGWALSIALVELRYYRDTNPVMAGHARRVIREVLDGRER”, which protein production is on record?
**A.** failed

**Q.** With “MGSVSTGNAGSGTVGTSTTSRADVMTFQPSSLPVSYVGETYNVQVGVTGGVGPYGYRLTAGTLPPGLKFAGGALSGTPTKAGSYSFAIQATDANLSTRVQEYTMNVDALPPLALKPTLPPGEIRGETRIPVTIQAPRAVRAARLSWDLGKDVQVTRVQPADAGSVVFWQQRGSVLTVDLGFRTVPRPDARIALITVKPAKAVTLKADALGYEARDGSGKMLVDKKRPGSEPVKPAEQPGDPKVDPKAADQKATDQKATDPKTVDPKTVTPADTVEGGPLPSPALPTPSLPPTLPPVTTPPANTPPVPTPTPPANQPAPAPAPQPAPAPQPTPPSGTGGALEHHHHHH” as the sequence, how does the protein production read?
**A.** failed

**Q.** For “MTWPARRVLYAIWQDPWMTVSRATYISRMLALVNWATWPDDADTSDTPAACVDGDCSRPNAPGERYPTFRWSDALVRELDAVLLSTEPYRFTEDHADALERQIGKPVLLVDGEMLSWYGSRAVAGARYLRSLAQGFLEHHHHHH”, which protein production is on record?
**A.** failed

**Q.** Which protein production does the source give for “MNMDISKAAIVTGGSRGIGRAIAARLAADGFAVVVNYAGNGAKAHETVAAIESAGGKAIAIQGDVGKPQDVANLFAQARAAFGRIDVVVNSAGVMPMASIDVANLDAFDQVIATNLRGAFLVLAQAAANLGDDGRIIALSTSVIAKSLPGYGPYIASKAGVEGLVHVLANELRGRNITVNAIAPGPVGTDLFFNGKSEEAVASIARQAPMERIGMPDEIAAAVSFLAGPDGRWVNAQVLRVNGGFA” here?
**A.** failed

**Q.** With “KNTGSKHNFLNHGLPLNLAIKPYLALKGSVDFPAENGVQNTESTQEKREIGDEENSAKFPIGRRDFDMLRCMLGRVYRPCWQV” as the sequence, how does the protein production read?
**A.** failed

**Q.** Which protein production does the source give for “MRKYLLIGVSAFVLGAGTMAYISPIAQANNAPKAQTYKLLELFGDVLGTVEDQYVTEVDDKKLIEAALDGMLTSLDPHSGYLAPDAFEDMQDTTRGEYGGLGLEVTSEEGVVKVISPMDGTPASRAGIQAGDYITAVNGQSVLGLTVNEAVKQMRGTAGEAVTLTIAREKTDPFDVKLVREVIKPKAAIARMEGDYGYVRLPGFNEKATDALASSVSELKSKNPKMKGLILDLRNNPGGLLDQAVGVADVFLDGGEVVSQRGRDPRNIQRYNARGGDMLNGLPMVVLINQGSASAAEIVAGALQDRKRAEVVGLTSFGKGSVQTVIPLRGGADGALKLTTARYFTPSGRSIQKTGIAPDLEVAQTRDQAQDIANRVWFSEASFKNALNADEGKSRVGAHTPAEAPPTGFDDKKGDFQLQRAIAVLQAGGVAKTPKLPKPAAKVAEVTAKAAAAAGGKTPVTEVK” here?
**A.** failed

**Q.** Which protein production does the source give for “MNQLSRSACTAPQRGGAWQWIACWALLLFTLLVAPLAAAQAVQGNASQEAALTVAPAPRVGVVTMQPGEVFFERFGHDAIVVVDPRTQQATSYNFGFFDPSEPDFVPRFARGDMMYYLVALPLEEDLSQYRDAGRGVSVQWLDLPPDQARALAEGLAVRSQPENARYHYDYFMANCATMVRDTLDRAMGGALKSQLAGRSRGNTFRSEAVRLASPAPWMWLGFDLGLGPYADRPLSRWEEAFVPMRLADSLTQVHNSAGRPLVQSTQVLLPHRIAPEPAEQQRHWWPWLLTGLIVAAGVLALGRRQRLLAGLALPFWLLCAIGGGLLVYLWGFTAHASAWGNRNLLLVNPLCMLLWFGGIRLQLGHRPGRWFNVLSWVVAACALAALVIHWLSFQAQDNLQWVMLLLPIHTALAIALRLRDLPVRTR” here?
**A.** failed

**Q.** Which protein production does the source give for “MTVWFVAAVAVLIIELLTGTVYLLVVSAALAGSGIAYGLTGSTPAAVLTAALLSALGIWFVHAKTAVGKVETDSYQDLDTGKYAEILRYTGGNRYEVFYRGTHWQAQNTGQEVFEPGTRALIVRKEGNLLIIANP” here?
**A.** failed

**Q.** Which protein production does the source give for “DHKDLIVVAAKHGYALADRNTGQLSYIRKVWDEQEDPEKARRMRFNDGAVDSHGRFWAGSMNDPKVQKPTNEGVLFRLDPDLQLHRMVEGVSIPNGIGWNLRDDTMYFTDSPTAKIFAFDFDASTGTISNRRVHYDVGEPMEPDGFAIDEEGCIWSAIYGGGKIIRISPEGKLIGEISFPTRNITCPTFVGTELFVTTAKDDVNDEQFPESVRYGGRVYRIDVGVRGKPKNEFRFQK” here?
**A.** failed

**Q.** With “MSLQRFTNRTIVVAGAGRDIGRACAIRFAQEGANVVLTYNGAAEGAATAVAEIEKLGRSALAIKADLTNAAEVEAAISAAADKFGEIHGLVHVAGGLIARKTIAEMDEAFWHQVLDVNLTSLFLTAKTALPKMAKGGAIVTFSSQAGRDGGGPGALAYATSKGAVMTFTRGLAKEVGPKIRVNAVCPGMISTTFHDTFTKPEVRERVAGATSLKREGSSEDVAGLVAFLASDDAAYVTGACYDINGGVLFSEGHHHHHH” as the sequence, how does the protein production read?
**A.** not failed

**Q.** Which protein production does the source give for “MFDWLTNSTAIIIILPVVVFVLTLFLARFKFRKPQRRIMLAADLSTIFLIIAVHFFMIVIFNRSFLLYILLFLFILGIVIVVLAAKKEGEIQFRKILRGYWRLCFFIFALLYVVLYLYGIIYSLILLF” here?
**A.** failed

**Q.** Which protein production does the source give for “MVTQKQRRLWAFLAALACVMWGISGLFAKSLFNISSDITPMWLSQIRMVTSGIILLIVAGILKQKPIATMKNKHDAWVIIAYGIFGLLPVQLFYFIVVQQANASIATILQFVGPFFVMGYLAFTHKQVMRRIDVIAAIFAFIGVVLLATHGRFNHLAITPSVLFWGLLSAVGVATNTLIPIGVLKRVSSLVVTGWGLLSAGICLMIVHPQMPHIPNTPHVWLDVLAVIVIGTLIPFQLMTNSLRFIKASTASLLDAFEPFSATLGSVLCFGLVMTPMDWIGSILVVLAAMALNISPKKKKGKLDGKSQD” here?
**A.** failed

**Q.** With “MILLSVHDSFLLDHNLPSACDKVFERLLDVTNSSFGFIATLQEDEDGQSLYLPAISNLAWDEETLTWYRHQRRTHGGLRLRKLDNLFGHVVTHNTVVCTNSLLRQKAGRDLPPIHPALHSLLGIPITHNGKTVGMIALANRREGYDQTMIELEHHHHHH” as the sequence, how does the protein production read?
**A.** failed

**Q.** With “MLYLAELLQGKNALITGAGRGIGRAVAIALAKEGVNVGLLARSEENLKAVAKEVEAEGVKAVIATADVSSYEEVTTAIETLKNGLGSIDILINNAGISKFGKFLELDVADWEKIIQVNLMGVYYATRAALPSMIEQQSGDIINISSTAGQKGAPVTSAYSASKFGVLGLTESLAMEVRKHNIRVTALTPSTVATDMAVDLGLTDGNPDKVMQAEDIAEFIVAQLKLNKRTFIKSAGLWSTNP” as the sequence, how does the protein production read?
**A.** failed

**Q.** Which protein production does the source give for “MAAFVRDYLEASVENETDGGRMRWYPWHSAEYRFTHIMNVVDIAERIAEATSANVDVVRVAALFHDIAKLEAEQDAHAEEGARIARKYLETHGQFPPSFVDQVAEAVSRHSYQGDLMDLPLEARCLVEADLLDKAGANGAALMLLRMGYEARTHVDAAEMIQRVLDRGEDAAERVESDAASSIAHRRLKRVRWLHDWLTSEVPAMNDTGY” here?
**A.** failed

**Q.** For “MFWDNLTVAAKFFIEISVELTILFIGITFLVGLSQEYVPDETIKRALGGRNKVIGSILGAGFGAITPFCSCSTIPLLLGMLKAGAPFAAAMAFLFSSPLLNPVIISLFVILLGWKVTALYFVVVFMSTIAIGLLLDWLGFSNQIKPVAVVRNRCDCEQDTNAKSRIQRSAVFAFSLFRQLMPYLLLGAGIGAFIHGFVPTEVITRVAGPSNPLAVPVAAIIGVPIYIRAETMIPIGLALIKKGMSVGAVLALIIGGAGASIPELTLLSSIFKKRLLTAFVITVFSIAVIAGYLANLLTL”, which protein production is on record?
**A.** failed

**Q.** Which protein production does the source give for “MNSLSVIKPNNAMPMTAEYRQSIRTALKTSLYPGASDTSVDMVLAYCQAADLDPMTKPVHIVPMWIPEKKVDGRVMSSAGMRDVIMPGIELYRTKAHRTGEYAGQDEAVFGDTVCETLGGVQIRYPSWCRIAVYRMVAGERVRFAATVYWLEAYATARKDSPAPNSMWQKRPFGQLEKCAEALALRKAFPEAVGAQPTAEEMDAGRHTIEGETIHVAPIPVNKDIRDISGPYPQEEFEKNFPKWCDLIESGKTTADRIITMLHSKGKGQLSLEQLTAIRACAEDTSAEPVPTDNTPQESNTTDTEENT” here?
**A.** not failed

**Q.** With “MQPRLVIAGTHSGVGKTTVTLGLMAAFVEKGNIVQGFKCGPDYIDPSYHRAVTKRASRNLDSWMVSEDVVNDIFIEGCNGADLSIIEGVMGFYDGKASTSDKGSTADISLLLQAPVLLVVDISGMARSAAAVVKGFQQLNEKVKIAGVILNGAGSERHAEMCSEAIKEACGIPALGYLKKGDVPSIPERHLGLVPALERGEHDSLFSQLAAVVSRQFDLERIERLALEASALSRRTNLFQQTKRPSVVKIAVAYDAAFHFYYEENFTLLRQAGAELVYFSPLRGEDLPSHCDGLYLGGGFPEEFADELSQWIKDHPQLKKRVQSGLPTLAECGGYMFLGEQLTTTKGKTVEMAGVIPMVVQMENKLVSLGYRDVTPLDDSFLLSKGQQIRGHEFHYSKAVYTETERPAYFVKGLFGEGKEGYMSDHLLAGYTHLHFASEPAVATQWVKACEVYKNRRLHRGQVSQLEHHHHHH” as the sequence, how does the protein production read?
**A.** not failed

**Q.** For “MPTFHEIDVLRHNSASWDAQAARDCEWSRPVSAEEVAAARRGDWAVKLTPGALPAHWLGDVRGREILCLASAGGQQAPILAAAGARVTLFDASAGQLDKDRQVAARDRLELACVQGDMRDLSTFADASFDLVFNPISNLYVDDVLPVWRECARVLRPGGKLLASFYNPALFIEDRSPELAEQGLIRPRHRLPYSDLESLSAEALAAKREKGEALVFGHSLTQQIAGQLAAGLLLQDFYEDWQPHPRFVIDRFVPTFLATCALKPRSAAG”, which protein production is on record?
**A.** failed
